Test results from PMC4551920.
Where two headings read alike, the source gives them in different places.

B1: miR-16 (ssRNA)
RNA: UAGCAGCACGUAAAUAUUGGCG
B2: miR-122 23-nt (3'-a) (ssRNA)
RNA: UGGAGUGUGACAAUGGUGUUUGA
B3: miR-122 17-22C (ssRNA)
RNA: UGGAGUGUGACAAUGGCCCCCC
B4: miR-122 27-nt (3'-a5) (ssRNA)
RNA: UGGAGUGUGACAAUGGUGUUUGAAAAA

How the values were obtained:
CUGBP1-Flag [1] = target: T1, CUGBP1-Flag (UniProt Q92879 1-486); assay: EMSA
CUGBP1-Flag [2] = target: T1, CUGBP1-Flag; assay: EMSA; remark: listed apart in the source

T1 sequence (Q92879 whole entry): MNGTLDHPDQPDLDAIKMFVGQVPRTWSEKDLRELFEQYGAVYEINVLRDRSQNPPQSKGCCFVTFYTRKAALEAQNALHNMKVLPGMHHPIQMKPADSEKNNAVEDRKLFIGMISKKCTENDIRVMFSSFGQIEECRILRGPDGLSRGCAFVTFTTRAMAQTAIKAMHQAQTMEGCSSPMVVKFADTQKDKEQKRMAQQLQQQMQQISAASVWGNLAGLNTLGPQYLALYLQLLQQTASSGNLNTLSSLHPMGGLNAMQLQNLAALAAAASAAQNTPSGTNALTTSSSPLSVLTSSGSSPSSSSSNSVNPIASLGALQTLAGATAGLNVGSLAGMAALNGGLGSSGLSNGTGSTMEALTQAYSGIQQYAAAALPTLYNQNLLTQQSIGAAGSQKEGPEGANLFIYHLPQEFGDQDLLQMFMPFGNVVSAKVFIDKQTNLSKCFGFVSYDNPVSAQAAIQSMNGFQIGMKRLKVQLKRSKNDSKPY

Binder	binding result (CUGBP1-Flag [1])	binding result (CUGBP1-Flag [2])
B1	no binding	–
B2	–	binds
B3	–	no binding
B4	–	binds
